Assay results from patent US20230034768A1 (BIOSION, published 2023).
Where a chain is given by its changes, count along the chain named.

B1: Chimeric B1A8 (antibody, human IgG2, kappa, V domains shown)
VH: EVQLVESGGDLVKPGGSLKLSCAASGFTFSRYGMSWVRQTPDKRLEWVASISSGGTYTSYPDSVQGRFTITRDSAKNTLYLQMSSLKSEDTAMYYCARRNFITSATDCYFDVWGAGTTVTVSS
VL: DTVLTQSPATLSVTPGASVSLSCRASQSISNNLHWYQQKSHESPRLLIIYASQSISGIPSRFSGSGSGTDFTLSINSVETEDFGVYFCQQSNSWPFTFGGGTKLEIKR
notes: Mouse variable regions on human IgG2 / kappa; also called chimeric antibody B1A8
B2: Chimeric B3D8 (antibody, human IgG2, kappa, V domains shown)
VH: B1 VH with P14S, Q65K
VL: B1 VL
notes: Mouse variable regions on human IgG2 / kappa; also called chimeric antibody B3D8
B3: Chimeric D1E3 (antibody, human IgG2, kappa, V domains shown)
VH: EVQLVESGGGLVKPGGSLKLSCAASGFTFSRYAMSWVRQTPEKRLEWVAGISSGGTYTYYPDTVKGRFTISRDSAKNILYLQMGSLRSEDSAMYHCARRDYGDVYEWYFDVWGTGTTVTVSS
VL: DIVMTQSHKFMSASVGDRVSITCKASQGVRIAVAWYQQKPGQSPKLLIYSASYRYTGVPDRFTGSGSGTDFTFTISSVQAEDLAVYYCQQHHSSPWTFGGGTKLEIKR
notes: Mouse variable regions on human IgG2 / kappa; also called chimeric antibody D1E3
B4: humanized antibody huD1A1-V3 (antibody, human IgG4 S228P, kappa, V domains shown)
VH: EVQLVESGGGLVKPGGSLRLSCAASGFTFRNYAMSWVRQAPGKGLEWVAGISSGGTYTYYPDTVKGRFTISRDNAKNSLYLQMNSLRAEDTAVYYCARRDYGDVYEWYFDVWGKGTTVTVSS
VL: DIQMTQSPSSLSASVGDRVTITCKASQDVRTSIAWYQQKPGKAPKLLIYSASYRYTGVPSRFSGSGSGTDFTFTISSLQPEDIATYYCQQHYSSPWTFGGGTKVEIKR
notes: Human IgG4 / kappa
B5: humanized antibody huD1A1-V1 (antibody, human IgG4 S228P, kappa, V domains shown)
VH: B4 VH with K76R, K114T
VL: B4 VL
notes: Human IgG4 / kappa
B6: humanized antibody huD1A1-V4 (antibody, human IgG4 S228P, kappa, V domains shown)
VH: B4 VH with K76R, K114T
VL: B4 VL with A43S, I83L
notes: Human IgG4 / kappa
B7: humanized antibody huD1A1-V6 (antibody, human IgG4 S228P, kappa, V domains shown)
VH: B4 VH
VL: B4 VL with A43S, I83L
notes: Human IgG4 / kappa

Target: T1, biotin-labeled human RANKL-Fc protein (prepared in house, SEQ ID NO.: 40) (human, biotin-labeled (sites not given))
T1 construct: also called RANKL-Fc-biotin
Assay: competitive ELISA: antibody blocks biotin-labeled human RANKL-Fc binding to coated human RANK-Fc

Binder	IC50 [nM]
B1	0.905
B2	3.17
B3	0.0505

Target: T2, human RANKL-his protein (prepared in-house with SEQ ID NO: 43) (human, UniProt O14788 136-317)
T2 construct: also called recombinant human RANKL-his
T2 chain: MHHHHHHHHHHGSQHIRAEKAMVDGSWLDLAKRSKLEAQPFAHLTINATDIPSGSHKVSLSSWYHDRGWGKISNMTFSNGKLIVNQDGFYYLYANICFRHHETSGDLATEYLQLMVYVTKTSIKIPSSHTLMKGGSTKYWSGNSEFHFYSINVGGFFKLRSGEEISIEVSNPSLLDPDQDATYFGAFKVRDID
Assay: Octet BLI, antibody from cell supernatant captured, human RANKL-his in solution
Experimental: (§1) Briefly, AHC/AMC biosensors (anti-human/anti-mouse IgG Fc capture, ForteBio) were presoaked with 10 mM glycine (pH 1.5) for 3 seconds, and then dipped in a well with running buffer (0.5% w/v BSA in PBST) for 3 seconds, the soaking and dipping steps were repeated for three times. […] A new baseline was run for 180 seconds in another well with HBS-EP⁺. […] Finally, sensors were presoaked with 10 mM glycine (pH 1.5) for 3 seconds, and then dipped in a well with running buffer for 3 seconds, the soaking and dipping steps repeated for three times. The association and dissociation curves were fit to a 1:1 Langmuir binding model using Octet evaluation software.
The chimeric antibody when tested was in HBS-EP⁺ at 5 μg/ml concentration.

Binder	Kd [nM]	koff [s⁻¹]	kon [M⁻¹ s⁻¹]
B4	< 0.001	< 1e-07	106000
B5	< 0.001	< 1e-07	124000
B6	< 0.001	< 1e-07	101000
B7	< 0.001	< 1e-07	115000

Target: T2, human RANKL-his protein (prepared …)
Assay: Octet BLI, antibody captured, human RANKL-his in solution
Experimental: as §1
(§2) Cell supernatants were harvested after six days in shaking flasks, spun down to pellet cells, and then chimeric antibodies were purified from cell supernatants as described above. The purified antibodies were tested in the capture ELISA, competitive ELISA assay and Octet affinity test following the protocols in the foregoing Examples.

Binder	Kd [nM]
B1	1.62
B2	2.65
B3	0.612

Target: T1, biotin-labeled human RANKL-Fc protein …
Assay: competitive ELISA: antibody blocks biotin-labeled human RANKL-Fc binding to coated benchmark denosumab

Binder	IC50 [nM]
B1	4.4
B2	16.8
B3	0.258

Target: T1, biotin-labeled human RANKL-Fc protein …
Assay: capture ELISA: captured antibody, biotin-labeled human RANKL-Fc, OD(450-630)
Experimental: Plates were washed once with wash buffer (PBS+0.05% v/v Tween-20, PBST) and then blocked with 200 μl/well blocking buffer (5% w/v non-fatty milk in PBST) for 2 hours at 37° C. […] After a final wash, plates were incubated with 100 μl/well ELISA substrate TMB (Innoreagents, Cat #TMB-S-002) at room temperature. The reaction was stopped in 3-10 minutes with 50 μl/well 1M H₂SO₄, and the absorbance of each well was read on a microplate reader using dual wavelengths mode with 450 nm for TMB and 630 nm as the reference wavelength. The OD (450-630) values were plotted against antibody concentration. Data were analyzed using Graphpad Prism software and EC₅₀ values were reported.
as §2

Binder	EC50 [nM]
B1	2
B2	3.17
B3	0.183
